{"source": "paper PMC5605622", "about": "“Agdc1p – a Gallic Acid Decarboxylase Involved in the Degradation of Tannic Acid in the Yeast Blastobotrys (Arxula) adeninivorans” (Frontiers in Microbiology, 2017)", "key": {"[1]": {"substrate": "O=C(O)c1cc(O)c(O)c(O)c1", "experiment": "purified protein", "assay_type": "biochemical, Blastobotrys adeninivorans", "details": "50 mM potassium phosphate pH 6.2, 40 °C"}, "[2]": {"substrate": "O=C(O)c1ccc(O)c(O)c1", "experiment": "purified protein", "assay_type": "biochemical, Blastobotrys adeninivorans", "details": "50 mM potassium phosphate pH 6.2, 40 °C"}}, "data": [{"protein": "Agdc1-6hp (Agdc1p, gallic acid decarboxylase) (Blastobotrys adeninivorans) (protein, full-length ORF (696 bp, 232 residues as printed), C-terminal 6xHis tag kept, expressed in A. adeninivorans G1212, IMAC purified) MTTSYEPWPQLYSHLNGTNEEVLDRMKVAELCKGWSVYRDASEWANFKEMFTPDANIWTTWSGAQTIDSFIQISKDGKDKGAFIMHRECGTLVDLNPKTQRAIGKMKTTITQRFEYEGVPFDIDCDNYFIFFCLKDSNGDWKARWYKVFYVKDKFVPVGVPTAENMEKLAKLFSKENLEQYPWGYQYLAVAQANLGYPIDKKLPTWKNELYHTMYDAMKEWMEGKEIDLHW", "values": [{"measurement": "Km", "setting": "[1]", "value": "700 ± 200", "unit": "µM"}, {"measurement": "kcat", "setting": "[1]", "value": "42.0 ± 8.2", "unit": "s⁻¹"}, {"measurement": "Km", "setting": "[2]", "value": "3200 ± 200", "unit": "µM"}, {"measurement": "kcat", "setting": "[2]", "value": "44.0 ± 3.4", "unit": "s⁻¹"}]}]}
